Results as given in US20120231006A1 (Amgen, published 2012).
Like-named read-outs stand apart in the source and are kept apart here.

Key:
human Orai1 [1] = biological target: T1, human Orai1 (human, UniProt Q96D31 1-301); assay: cell-based or functional assay
[2] = biological target: T2, hOrai1-mOrai1 ECL2 (…) protein (human/mouse chimera, UniProt Q96D31 1-301); assay: FACS, 293EBNA, RFI-POC grade; set-up: concentration or dose not given beside the values
T2 construct: also called Ch
T2 sequence (Q96D31 other isoform, or with tags, fused parts or gaps): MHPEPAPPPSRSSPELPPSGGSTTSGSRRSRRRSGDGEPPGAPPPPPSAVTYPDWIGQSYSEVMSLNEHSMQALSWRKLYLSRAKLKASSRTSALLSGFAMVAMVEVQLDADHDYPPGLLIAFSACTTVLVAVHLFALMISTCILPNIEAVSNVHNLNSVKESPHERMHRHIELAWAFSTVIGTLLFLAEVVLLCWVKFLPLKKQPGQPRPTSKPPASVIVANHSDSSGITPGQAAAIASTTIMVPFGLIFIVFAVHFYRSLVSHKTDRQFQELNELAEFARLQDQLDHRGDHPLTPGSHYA

[3] = biological target: T3, hOrai1-mOrai1 ECL2 (RPTSKPPA) protein (human/mouse chimera, UniProt Q96D31 1-301); assay: FACS, 293EBNA, RFI-POC grade; set-up: concentration or dose not given beside the values
T3 construct: also called Ch

[4] = biological target: T4, mOrai1-hOrai1 ECL2 chimeric protein (human/mouse chimera, UniProt Q8BWG9 1-304 (mouse entry)); assay: FACS, 293EBNA, RFI-POC grade; set-up: concentration or dose not given beside the values
T4 construct: mouse Orai1 with human ECL2; also called Ch

[5] = biological target: T5, hOrai1-mOrai1 ECL2 (…) protein (human/mouse chimera, UniProt Q96D31 1-301); assay: FACS, 293EBNA, RFI-POC grade; set-up: concentration or dose not given beside the values; remark: listed apart in the source
T5 construct: also called Ch
T5 sequence (Q96D31 other isoform, or with tags, fused parts or gaps): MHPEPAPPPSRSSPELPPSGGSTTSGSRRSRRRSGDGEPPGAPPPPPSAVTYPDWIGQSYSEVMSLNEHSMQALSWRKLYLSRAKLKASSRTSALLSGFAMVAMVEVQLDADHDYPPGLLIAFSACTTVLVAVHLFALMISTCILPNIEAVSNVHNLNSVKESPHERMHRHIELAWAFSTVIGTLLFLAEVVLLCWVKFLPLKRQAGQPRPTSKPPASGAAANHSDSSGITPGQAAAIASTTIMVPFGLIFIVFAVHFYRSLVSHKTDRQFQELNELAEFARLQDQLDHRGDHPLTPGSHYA

[6] = biological target: T2, hOrai1-mOrai1 ECL2 (…) protein; assay: FACS, 293EBNA, RFI-POC grade; set-up: concentration or dose not given beside the values; remark: listed apart in the source
[7] = biological target: T3, hOrai1-mOrai1 ECL2 (RPTSKPPA) protein; assay: FACS, 293EBNA, RFI-POC grade; set-up: concentration or dose not given beside the values; remark: listed apart in the source
[8] = biological target: T6, hOrai1-mOrai1 ECL2 (…) protein (human/mouse chimera, UniProt Q96D31 1-301); assay: FACS, 293EBNA, RFI-POC grade; set-up: concentration or dose not given beside the values; remark: listed apart in the source
T6 construct: also called Ch
T6 sequence (Q96D31 other isoform, or with tags, fused parts or gaps): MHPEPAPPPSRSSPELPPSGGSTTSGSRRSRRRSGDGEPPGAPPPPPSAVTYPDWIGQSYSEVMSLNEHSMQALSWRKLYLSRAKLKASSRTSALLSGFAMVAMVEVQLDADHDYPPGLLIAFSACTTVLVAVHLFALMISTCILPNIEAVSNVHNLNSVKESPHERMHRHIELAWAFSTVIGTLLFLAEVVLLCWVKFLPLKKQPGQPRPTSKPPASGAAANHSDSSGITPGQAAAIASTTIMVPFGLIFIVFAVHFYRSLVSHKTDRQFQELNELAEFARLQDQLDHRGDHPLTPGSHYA

[9] = biological target: T4, mOrai1-hOrai1 ECL2 chimeric protein; assay: FACS, 293EBNA, RFI-POC grade; set-up: concentration or dose not given beside the values; remark: listed apart in the source
[10] = biological target: T5, hOrai1-mOrai1 ECL2 (…) protein; assay: FACS, 293EBNA, RFI-POC grade; set-up: concentration or dose not given beside the values; remark: listed apart in the source
[11] = biological target: T7, hOrai1-mOrai1 ECL2 (SKPPA) protein (human/mouse chimera, UniProt Q96D31 1-301); assay: FACS, 293EBNA, RFI-POC grade; set-up: concentration or dose not given beside the values
T7 construct: also called Ch

[12] = biological target: T8, mOrai1-hOrai1 ECL2 (HSD) protein (human/mouse chimera, UniProt Q8BWG9 1-304 (mouse entry)); assay: FACS, 293EBNA, RFI-POC grade
T8 construct: also called Ch
Excerpt: (§1) FIG. 16A-D illustrates the results of FACS analysis showing binding to the indicated mOrai1-hOrai1 ECL2 chimeric mutants expressed on the surface of HEK-293-EBNA cells. Transfected cells were stained first with recombinant monoclonal antibodies then counter-stained with a secondary phycoerythrin-labeled goat (“Gt”) anti-human (“Hu”) IgG F(ab′)₂ antibody fragment and visualized using FACS. In FIG. 16B and FIG. 16D, The values of Relative Fluorescence Intensity as Percent of Control (RFI-POC) are calculated from the relative fluorescence intensity geometric mean (Geo Mean). The geometric mean is an average calculated by multiplying a series of numbers and taking the nth root where n is the number of numbers in the series. It is a statistical average of a set of transformed numbers often used to represent a central tendency in a highly variable data set that minimizes the effects of extreme values.
(§2) Table 11A and Table 11B feature a schematic representation of the POC data from FIG. 16B and FIG. 16D, respectively, where the binding results are recorded as (+++) denoting binding POC from 40% to 100%, (++) for POC of 5% to less than 40%, (+) for POC from 1% to less than 5% and (−) as lack of binding with POC less than 1%.

[13] = biological target: T9, mOrai1-hOrai1 ECL2 (VIV) protein (human/mouse chimera, UniProt Q8BWG9 1-304 (mouse entry)); assay: FACS, 293EBNA, RFI-POC grade
T9 construct: also called Ch
Excerpt: as §1, §2

[14] = biological target: T4, mOrai1-hOrai1 ECL2 chimeric protein; assay: FACS, 293EBNA, RFI-POC grade
Excerpt: as §1, §2

human Orai1 [15] = biological target: T1, human Orai1; assay: KinExA, AM1-CHO/hOrai1/hSTIM1-YFP cells
Description: Each equilibrium sample set was read in triplicate on the KinExA machine. For low [Ab] equilibrium samples 4 mL was run of each sample in triplicate. For high [Ab] equilibrium samples 300 μL was run of each sample in triplicate. […] For each equilibrium sample the free [Ab] would be detected by first running the coated beads through the flow cell, then after quick wash with the running buffer (1×PBS pH7.4+1% BSA+0.05% Sodium Azide) the equilibrium samples were passed through the beads followed by a quick wash with the running buffer. Then the secondary detection Ab, Gt anti Hu (H+ L) Cy5, was run through the flow cell at 1 μg/mL and 1000 μL per run. The KinExA voltage output signal was then used in KinExA software to calculate the Kd values for each antibody. From the plots at two different initial total [Ab] concentrations the Kd was obtained from curve fitting using n-curve analysis in KinExA Pro software (Sapidyne Instruments Inc., Boise Id.).

human Orai1 [16] = biological target: T1, human Orai1; assay: cell-based or functional assay; remark: listed apart in the source

T9 sequence (Q8BWG9 other isoform, or with tags, fused parts or gaps): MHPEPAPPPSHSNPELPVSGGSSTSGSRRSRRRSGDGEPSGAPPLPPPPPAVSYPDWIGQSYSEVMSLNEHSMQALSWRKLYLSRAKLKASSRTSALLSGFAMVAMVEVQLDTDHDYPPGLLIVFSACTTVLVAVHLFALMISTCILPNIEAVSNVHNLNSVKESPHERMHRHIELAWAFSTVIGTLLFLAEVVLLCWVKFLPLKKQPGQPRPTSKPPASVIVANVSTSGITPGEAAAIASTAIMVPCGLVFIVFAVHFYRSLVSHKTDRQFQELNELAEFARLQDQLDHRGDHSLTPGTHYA
T7 sequence (Q96D31 other isoform, or with tags, fused parts or gaps): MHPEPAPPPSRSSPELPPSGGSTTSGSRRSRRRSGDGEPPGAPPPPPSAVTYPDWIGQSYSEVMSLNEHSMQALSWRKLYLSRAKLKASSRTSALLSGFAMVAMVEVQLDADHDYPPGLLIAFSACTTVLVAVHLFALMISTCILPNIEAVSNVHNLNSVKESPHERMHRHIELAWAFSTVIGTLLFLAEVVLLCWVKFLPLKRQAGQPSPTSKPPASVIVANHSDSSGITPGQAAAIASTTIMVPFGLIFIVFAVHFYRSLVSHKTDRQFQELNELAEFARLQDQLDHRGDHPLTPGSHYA
T4 sequence (Q8BWG9 other isoform, or with tags, fused parts or gaps mutant): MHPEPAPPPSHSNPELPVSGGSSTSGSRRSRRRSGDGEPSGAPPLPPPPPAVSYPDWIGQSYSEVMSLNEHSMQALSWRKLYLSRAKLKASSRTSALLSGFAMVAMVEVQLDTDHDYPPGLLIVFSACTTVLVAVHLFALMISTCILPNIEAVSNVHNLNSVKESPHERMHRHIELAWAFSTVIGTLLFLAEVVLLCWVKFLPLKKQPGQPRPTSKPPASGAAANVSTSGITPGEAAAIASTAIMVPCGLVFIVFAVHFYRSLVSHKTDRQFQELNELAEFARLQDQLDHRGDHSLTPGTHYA
T1 sequence (Q96D31 whole entry): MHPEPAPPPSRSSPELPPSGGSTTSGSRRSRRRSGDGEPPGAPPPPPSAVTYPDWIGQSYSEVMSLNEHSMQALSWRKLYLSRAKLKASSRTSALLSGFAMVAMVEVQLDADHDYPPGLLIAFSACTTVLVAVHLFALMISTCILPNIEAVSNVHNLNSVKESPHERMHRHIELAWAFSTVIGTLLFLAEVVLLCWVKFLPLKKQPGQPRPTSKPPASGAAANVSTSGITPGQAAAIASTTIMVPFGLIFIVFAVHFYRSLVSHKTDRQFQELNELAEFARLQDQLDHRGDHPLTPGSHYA
T3 sequence (Q96D31 other isoform, or with tags, fused parts or gaps): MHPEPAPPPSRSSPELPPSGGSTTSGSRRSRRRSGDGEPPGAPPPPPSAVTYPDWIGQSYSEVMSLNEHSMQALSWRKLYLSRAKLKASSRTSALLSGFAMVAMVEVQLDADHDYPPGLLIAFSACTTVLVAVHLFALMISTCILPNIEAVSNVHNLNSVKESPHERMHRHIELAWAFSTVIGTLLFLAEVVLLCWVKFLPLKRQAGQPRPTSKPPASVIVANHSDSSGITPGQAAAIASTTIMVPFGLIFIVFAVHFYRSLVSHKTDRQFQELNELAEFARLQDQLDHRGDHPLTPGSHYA
T8 sequence (Q8BWG9 other isoform, or with tags, fused parts or gaps): as the sequence (Q8BWG9 other isoform, or with tags, fused parts or gaps mutant) above, with V226H, T228D counted along it

| Binder | IC50 IFN-γ, whole blood Donor A (human Orai1 [1]) | IC50 IFN-γ, whole blood Donor B (human Orai1 [1]) | IC50 IL-2, whole blood Donor A (human Orai1 [1]) | IC50 IL-2, whole blood Donor B (human Orai1 [1]) | percent of control (POC) of FACS Geo Mean [6] | percent of control (POC) of FACS Geo Mean [7] | percent of control (POC) of FACS Geo Mean [8] | percent of control (POC) of FACS Geo Mean [9] | percent of control (POC) of FACS Geo Mean [10] | percent of control (POC) of FACS Geo Mean [11] | POC (percent of control, FACS Geo Mean relative to Ch. 1) [12] | POC (percent of control, FACS Geo Mean relative to Ch. 1) [13] | POC (percent of control, FACS Geo Mean relative to Ch. 1) [14] | Kd (human Orai1 [15]) | IC50 IFN-g, whole blood Donor A, recombinant mAb (human Orai1 [16]) | IC50 IFN-g, whole blood Donor B, recombinant mAb (human Orai1 [16]) | IC50 IL-2, whole blood Donor A, recombinant mAb (human Orai1 [16]) | IC50 IL-2, whole blood Donor B, recombinant mAb (human Orai1 [16]) | further results |
| --- | --- | --- | --- | --- | --- | --- | --- | --- | --- | --- | --- | --- | --- | --- | --- | --- | --- | --- | --- |
| mAb 2D2.1 (antibody, human IgG2, lambda, V domains shown, fully human IgG2 lambda, Campaign 1; also called mAb 2D.1) VH: QVQLQQWGAGLLKPSETLSLTCAVYGGSFSGYYWSWIRQPPGKGLEWIGEIDHSGRINYNPALKSRLTISVDTSKNQFSLKLSSVTAADTAVYYCARAGSGGYEDWFDPWGQGTLVTVSS VL: QSVLTQPPSVSGAPGQRVTISCTGSSSNIGAGYNVHWYQQFPRTDPKLLIYVYNIRPSGVPDRFSGSRSGTSASLAITGLQTEDEADYYCQSYDSSLSGVVFGGGTKLTVLG | 1.98 nM | 2.06 nM | 1.31 nM | 1.16 nM | 40 to 100% | 40 to 100% | 40 to 100% | 40 to 100% | 40 to 100% | 5 to 40% | 40 to 100% | 40 to 100% | 40 to 100% | 0.099 nM | 1.18 nM | 1.1 nM | 0.49 nM | 0.21 nM | percent of control (POC) of FACS Geo Mean [2]: 40 to 100%; percent of control (POC) of FACS Geo Mean [3]: 40 to 100%; percent of control (POC) of FACS Geo Mean [4]: 40 to 100%; percent of control (POC) of FACS Geo Mean [5]: 40 to 100% |
| mAb 2B7.1 (antibody, human IgG2, V domains shown, fully human, Campaign 1) VH: QVQLQQWGAGLLKPSETLSLTCAVYGGSFSGYYWSWIRQPPGKGLEWIGEIDHSGSTNYNPALKSRLTISVDTSKNQFSLKLSSVTAADTAVYYCARAGSGGYEDWFDPWGQGTLVTVSS VL: QSVLTQPPSVSGAPGQRVTISCTGSSSNIGTGYNVHWYQQFPRTDPKLLIYVYNIRPSGVPDRFSGSRSGTSASLAITGLQTEDEADYYCQSYDSSLSGVVFGGGTKLTVLG | 4.6 nM | 14 nM | 3.5 nM | 4.67 nM | 40 to 100% | 40 to 100% | 40 to 100% | 40 to 100% | 40 to 100% | 5 to 40% | 40 to 100% | 40 to 100% | 40 to 100% | 0.1 nM | 5.27 nM | 3.93 nM | 2.06 nM | 0.9 nM | – |
| mAb 2C1.1 (antibody, human IgG2, lambda, V domains shown, fully human IgG2 lambda, Campaign 1; tested hybridoma-purified and recombinant; also called anti-hOrai1 mAb 2C1.1) VH: QVQLQQWGAGLLKPSETLSLTCAVYGGSFSGYYWSWIRQPPGKGLEWIGEIDHSGSTNYNPALKSRLTISVDTSKNQFSLKLSSVTAADTAVYYCARAGSGGYEDWFDPWGQGTLVTVSS VL: QSVLTQPPSVSGAPGQRVTISCTGSSSNIGAGYNVHWYQQFPRTDPKLLIYVYNIRPSGVPDRFSGSRSGTSASLAITGLQTEDEADYYCQSYDSSLSGVVFGGGTKLTVLG | 17.1 nM | 2.67 nM | 5.23 nM | 1.44 nM | 40 to 100% | 40 to 100% | 40 to 100% | 40 to 100% | 40 to 100% | 5 to 40% | 40 to 100% | 40 to 100% | 40 to 100% | 0.04 nM | 1.62 nM | 1.61 nM | 0.57 nM | 0.34 nM | – |
